In publication PMC8548535, “Kinetic and structural roles for the surface in guiding SAS-6 self-assembly to direct centriole architecture” (Nature Communications, 2021):

Assays:
[1] = molecular target: the molecule itself; test: high-speed atomic force microscopy (PORT-HS-AFM); homodimer with homodimer (and higher oligomers, rings) adsorbed on a mica surface; 20 mM Tris-HCl, 150 mM KCl, pH 7.4, 6-10 °C; ~120 nM in solution (~14 nM pre-incubated on mica for ring opening and closing); effective surface constants, Kd from a fit of a coagulation-fragmentation model
[2] = molecular target: the molecule itself; test: circular dichroism, concentration series; monomer to dimer; CD signal at 222 nm at varying protein concentrations, 20 °C, 20 mM potassium phosphate pH 8.0, 150 mM NaF, fitted with a two-state association model

B1: Chlamydomonas reinhardtii SAS-6[NL] (CrSAS-6[NL], amino acids 1-503) (domain or fragment, UniProt A9CQL4 1-503, looked up)
chain: MPLLLDDGDPKAQTGFDLSTATTLFWRPVPVHVKQQDREDVLEELTFRILTGVAKQNHNLRILRIHISSDSDLFFLHTLEVSEEDFQSLKNDQGILVDFASFPGKIISLLEKCILAQPGDSPRFQAVLTIRGGESVFKIVEINDFKQLPHITLAFRPGNDSVVKQFLAFRLSEVKGTCHDLSDDLSRTRDDRDSMVAQLAQCRQQLAQLREQYDKHLLEVQAQAKTQQASAHEERIREKSQLKDQFEKERGEMEGRYRDQIAALNTRLGELDTENRKLREVKYELDTKVSELSHKLGSSEGSNRSLEEETARLRSLNQQLSSSKHELEIQLNEAKAKVLALDEKAQSQGDVIEQQRGRLRDMEAALRQTEQRCADLRDTLASAEGRAKEAQAEVLKGNQAIEKLTNDLRLAKEKTKRKAAIILRQEEELQEREQSLANATRDVGVLGQQAESLRKDVASLHSENDSLRSKLEDSKQQLQSNEQMIRWLNQQVTEAQLHASGAT
notes: SAS-6 of Chlamydomonas reinhardtii, amino acids 1-503: globular N-terminal head domain and the coiled-coil (spokes), without the unstructured C-terminal moiety; Forms a homodimer through its coiled coil (monomer-dimer Kd measured here); source: E. coli BL21(DE3), purified (HisTrap Ni2+-Sepharose, PreScission cleavage, reverse HisTrap, SEC Superdex 200)
[1]
  stoichiometry N: 7 to 10 homodimers
[2]
  Kd: ~20 nM
